For one assay, the target named is Flag-FUS-R521H (human) (UniProt P35637). The assay is described as follows: proximity ligation; PLA of Flag vs XRCC1, LigIII or PARP-1 in GO-treated SH-SY5Y cells expressing Flag-tagged WT or R521H FUS.
The target of assay [1] is XRCC1/LigIII complex, purified from insect cells (UniProt P18887 1-633; P49916 88-1009). The assay is described as follows: cell-based or functional assay.
Assay [2] deals with T1, PARP-1, His-tag protein, purified (human, UniProt P09874 1-1014).
T1 construct: human PARP1, recombinant; also called human PARP1 purified protein; source: expressed as His-tag protein, purified (Ni-agarose column, cation exchange)
Put plainly: pull-down; GST-FUS with the partner at 4 C overnight on glutathione affinity gel, washed three times with TEN buffer (20 mM Tris-HCl pH 7.4, 0.1 mM EDTA, 100 mM NaCl), immunoblot; for XRCC1 also in the presence of PARP-1 and NAD+ (PARylation enhanced the interaction). The settings on record: both partners purified.

Chain of XRCC1/LigIII complex, purified from insect cells (P18887 whole entry, chain 1 of 2): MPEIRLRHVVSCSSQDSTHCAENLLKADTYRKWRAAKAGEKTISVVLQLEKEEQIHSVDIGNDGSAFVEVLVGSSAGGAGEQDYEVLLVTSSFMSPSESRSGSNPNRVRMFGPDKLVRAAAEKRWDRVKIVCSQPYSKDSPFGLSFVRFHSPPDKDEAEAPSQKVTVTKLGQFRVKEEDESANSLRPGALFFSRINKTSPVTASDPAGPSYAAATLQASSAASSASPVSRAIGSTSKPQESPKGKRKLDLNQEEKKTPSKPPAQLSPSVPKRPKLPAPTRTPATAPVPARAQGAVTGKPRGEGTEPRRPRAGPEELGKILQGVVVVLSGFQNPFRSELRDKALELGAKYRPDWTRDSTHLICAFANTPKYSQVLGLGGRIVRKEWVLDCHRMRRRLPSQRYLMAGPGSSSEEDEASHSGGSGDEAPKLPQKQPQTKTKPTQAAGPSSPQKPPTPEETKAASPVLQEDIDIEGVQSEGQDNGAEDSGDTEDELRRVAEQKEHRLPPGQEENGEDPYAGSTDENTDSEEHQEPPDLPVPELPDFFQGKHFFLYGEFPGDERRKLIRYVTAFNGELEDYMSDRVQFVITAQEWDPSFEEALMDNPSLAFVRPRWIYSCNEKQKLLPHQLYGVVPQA
Chain of XRCC1/LigIII complex, purified from insect cells (P49916 88-1009, chain 2 of 2): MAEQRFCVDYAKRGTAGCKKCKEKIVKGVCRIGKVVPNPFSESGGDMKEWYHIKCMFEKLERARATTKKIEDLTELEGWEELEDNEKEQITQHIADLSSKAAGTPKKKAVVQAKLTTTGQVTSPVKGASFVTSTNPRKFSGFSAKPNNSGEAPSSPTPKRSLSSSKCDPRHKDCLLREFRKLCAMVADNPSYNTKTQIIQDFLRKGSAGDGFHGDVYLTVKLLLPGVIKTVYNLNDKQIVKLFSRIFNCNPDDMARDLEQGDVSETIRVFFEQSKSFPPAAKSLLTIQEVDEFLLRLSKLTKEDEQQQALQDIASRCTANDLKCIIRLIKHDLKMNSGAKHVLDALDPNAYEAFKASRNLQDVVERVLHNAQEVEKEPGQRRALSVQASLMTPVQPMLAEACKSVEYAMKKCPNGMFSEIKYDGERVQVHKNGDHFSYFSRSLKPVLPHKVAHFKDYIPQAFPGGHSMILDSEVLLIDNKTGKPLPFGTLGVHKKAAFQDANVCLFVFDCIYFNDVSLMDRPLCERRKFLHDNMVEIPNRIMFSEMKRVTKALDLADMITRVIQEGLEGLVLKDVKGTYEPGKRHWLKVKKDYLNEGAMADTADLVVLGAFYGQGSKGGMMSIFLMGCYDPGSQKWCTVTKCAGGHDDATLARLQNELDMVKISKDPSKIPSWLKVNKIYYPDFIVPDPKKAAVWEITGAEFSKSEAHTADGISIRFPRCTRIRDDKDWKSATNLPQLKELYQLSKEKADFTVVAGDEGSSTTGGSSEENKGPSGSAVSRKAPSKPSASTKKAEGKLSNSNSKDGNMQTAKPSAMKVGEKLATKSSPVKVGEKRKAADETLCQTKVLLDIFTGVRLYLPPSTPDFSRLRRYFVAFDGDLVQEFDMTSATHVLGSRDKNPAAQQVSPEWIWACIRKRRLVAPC
T1 sequence (P09874 whole entry): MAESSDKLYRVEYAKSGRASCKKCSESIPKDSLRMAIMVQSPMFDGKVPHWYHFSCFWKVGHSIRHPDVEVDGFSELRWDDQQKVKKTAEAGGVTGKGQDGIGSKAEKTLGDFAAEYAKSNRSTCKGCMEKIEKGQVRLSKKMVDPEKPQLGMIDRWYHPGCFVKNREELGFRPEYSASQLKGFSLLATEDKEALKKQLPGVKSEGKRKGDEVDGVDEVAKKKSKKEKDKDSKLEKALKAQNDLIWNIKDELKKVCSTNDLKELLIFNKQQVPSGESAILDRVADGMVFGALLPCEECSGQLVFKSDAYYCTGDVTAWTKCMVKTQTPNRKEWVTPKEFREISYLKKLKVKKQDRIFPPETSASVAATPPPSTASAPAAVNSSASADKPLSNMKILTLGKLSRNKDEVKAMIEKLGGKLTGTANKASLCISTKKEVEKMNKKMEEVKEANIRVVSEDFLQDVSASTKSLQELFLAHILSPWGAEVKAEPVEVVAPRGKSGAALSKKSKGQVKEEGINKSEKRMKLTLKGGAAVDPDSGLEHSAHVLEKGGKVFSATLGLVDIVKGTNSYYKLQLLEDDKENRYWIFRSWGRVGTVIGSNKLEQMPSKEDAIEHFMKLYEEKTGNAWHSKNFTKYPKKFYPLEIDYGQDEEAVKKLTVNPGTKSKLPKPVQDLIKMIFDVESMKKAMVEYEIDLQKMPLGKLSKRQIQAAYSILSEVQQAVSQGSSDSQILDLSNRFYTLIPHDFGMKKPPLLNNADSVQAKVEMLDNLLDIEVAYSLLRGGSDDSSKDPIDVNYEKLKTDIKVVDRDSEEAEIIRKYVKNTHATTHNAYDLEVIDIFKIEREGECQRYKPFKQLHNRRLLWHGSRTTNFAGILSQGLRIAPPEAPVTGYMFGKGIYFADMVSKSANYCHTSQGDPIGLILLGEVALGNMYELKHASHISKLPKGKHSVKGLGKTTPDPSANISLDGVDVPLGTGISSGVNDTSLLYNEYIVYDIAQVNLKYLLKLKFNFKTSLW

In the assay with Flag-FUS-R521H (human), “DNA Ligase IIIalpha (LigIII), endogenous (from UniProt P49916 43-1009) (enzyme)” gave a percent reduction of PLA association against WT FUS above 80%.

B1: GST-FUS (natural protein, human, UniProt P35637 1-526, looked up)
chain: MASNDYTQQATQSYGAYPTQPGQGYSQQSSQPYGQQSYSGYSQSTDTSGYGQSSYSSYGQSQNTGYGTQSTPQGYGSTGGYGSSQSSQSSYGQQSSYPGYGQQPAPSSTSGSYGSSSQSSSYGQPQSGSYSQQPSYGGQQQSYGQQQSYNPPQGYGQQNQYNSSSGGGGGGGGGGNYGQDQSSMSSGGGSGGGYGNQDQSGGGGSGGYGQQDRGGRGRGGSGGGGGGGGGGYNRSSGGYEPRGRGGGRGGRGGMGGSDRGGFNKFGGPRDQGSRHDSEQDNSDNNTIFVQGLGENVTIESVADYFKQIGIIKTNKKTGQPMINLYTDRETGKLKGEATVSFDDPPSAKAAIDWFDGKEFSGNPIKVSFATRRADFNRGGGNGRGGRGRGGPMGRGGYGGGGSGGGGRGGFPSGGGGGGGQQRAGDWKCPNPTCENMNFSWRNECNQCKAPKPDGPGGGPGGSHMGGNYGDDRRGGRGGYDRGGYRGRGGDRGGFRGGRGGGDRGGFGPGKMDSRGEHRQDRRERPY
notes: FUS in pGEX6P-1, plasmid purchased from Addgene; The FUS of the ligation assays is named only 'purified FUS'; also called purified FUS; recombinant FUS; source: E. coli BL21, purified (glutathione-Sepharose 4B)
Consider B1, for which, in assay [1], the “catalytic efficiency of LigIII in the nick ligation reaction of XRCC1/LigIII with or without FUS” value came out at 4 fold and the “in vitro DNA nick ligation by XRCC1/LigIII complex (100 f.moles) with FUS 10-500 f.moles; fold change in ligated product” value is around 5 fold. The binding result in assay [2] was “binds”.

(Values after PMC6134028, “Mutant FUS causes DNA ligation defects to inhibit oxidative damage repair in Amyotrophic Lateral Sclerosis” (Nature Communications, 2018).)
